# Experimental data: patent publication US11905559B2, “Materials and methods for controlling gene expression” (priority 2016, dated 2024)
# Key:
# [1] = Force-ramp mechanical unfolding-refolding of the guanine-aptamer (optical tweezers); assay type: physicochemical; conditions: for Unfolding force of the aptamer / Observed nucleotides / Observed ΔXobs: +1 μM guanine, force-ramp; for Observed nucleotides / Observed ΔXobs: complete aptamer (69 nt), 18 pN
# Description: A 69 nucleotide (nt) guanine-sensing aptamer (FIGS. 3 and 4A-B) from xpt-pbuX operon in B. subtilis was used for mechanical unfolding-refolding studies. In the experimental set up shown in FIGS. 2A-E, a single molecule of the guanine-aptamer RNA was clamped between two polystyrene beads through RNA-DNA handles. […] Considering the inter-nucleotide distance as 0.448 nm at 18 pN, then using a serial worm-like chain equation
# The forces on the bead were recorded at an acquisition rate of 44 kHz. Data was collected from the stereo phone jacks on the ADC boards of the Tweezers instrument and sent to the host computer audio input for analysis by SignalScope program (Faber Acoustical, LLC). As shown in the plot, power spectral density is fitted with the Lorentzian fit to yield the corner frequency (fc) that was used to calculate the trap stiffness. This setup was used to perform three different mechanical reactions: force-ramp (FR), constant-force (CF) and force-jump (FJ) under a controlled force. In the force-ramp (FR) experiment, the trap was moved at 200 nm/s, which corresponded to a loading rate 7-8 pN/s. […] The force-ramp data is plotted as force vs. extension curves (FEC).
# In the force-ramp experiment, the trap was moved away (pull cycle) from the micropipette at 200 nm/sec, which corresponded to a loading rate of 7-8 pN/sec. This movement of the trap exerted a tension at the ends of the tethered RNA aptamer. […] In the constant-force (CF) experiment, the RNA was held at a preset force (FIG. 6A). The loading rate in CF experiments was zero. The preset force typically fluctuated around the mean with standard deviation ±0.15 pN. The force-ramp and the CF experiments were carried out at an ambient temperature 25±0.5° C. in buffer containing 10 mM Tris-HCl, pH 7.5 at 250 mM NaCl, 3 mM MgCl2 unless mentioned otherwise.
# [2] = in-line probing assay; read-out: KD for guanine; cited from earlier work
# [3] = Constant-force optical tweezers folding assay of the wild-type aptamer in 2,6-diaminopurine (DAP); assay type: physicochemical; conditions: 3 mM Mg^2+; for Folding rate kf / Transition distance ΔX / Unfolding rate ku / ΔG (0): 250 uM DAP; for ΔG (0): zero force
# From the text: Guanine binds to the aptamer via nucleobases U^22, U^47, U^51 and C^74 in the junction J1/2, J2/3 and J3/1. The hydrogen bonding between C^74 with the functional group in the 6th position of the purine is deterministic for ligand recognition. The purine analog 2,6-diaminopurine (DAP) differs from guanine in having an amino group in the 6th position (FIG. 13), and thus disrupts the hydrogen bonding pattern. […] In order to investigate if the loop-loop dynamics in the guanine-riboswitch are affected with a change in the ligand, mechanical assays in the presence of DAP were performed. […] Furthermore, a near similar L2-L3 kinetics highlighted that the tertiary and the secondary interactions remained unaffected by replacing guanine with DAP (Table 1).
# In a constant-force (CF) experiment, the RNA is held at a preset force through feedback control. The preset force typically fluctuated around the mean with a standard deviation ±0.15 pN. In this mode, data is recorded from 4-40 kHz to capture the fast intermediates. The plots are shown as extension vs. time (as in FIG. 6A). In force-jump (FJ) assay, the force is suddenly jumped from one force to another, and then held constant thereafter, as shown in FIGS. 23A-B.
# All FR, CF and FJ experiments were carried out at an ambient temperature, 25±0.5° C. The buffer in the microfluidics contained 10 mM Tris-HCl, pH 7.5 at 25° C., 250 mM NaCl, 3 mM MgCl2, and purine concentrations as indicated in wild-type aptamer. Unless stated otherwise, Mg^2+ concentration in the buffer was maintained at 3 mM in all experiments. The buffer in mutant m1 contained 5 mm Mg^2+ and 1 μM G, and in m3 contained 5 mM Mg^2+ and 200 nM Guanine. For the remaining m2, m4, m5 and m6 mutants, the buffer in single-molecule experiments was supplemented only with 3 mM Mg^2+ and 200 nM Guanine.
# [4] = 200 nM guanine, sequential unfolding
# [5] = transition BA (P1 folding), F 8.5 pN
# [6] = transition C′B (L2-L3 folding), F 8.5 pN
# [7] = transition DC (P3 folding), F 12.0 pN
# [8] = transition ED (P2 folding), F 13.5 pN
molecule,measurement,setting,value
"wt: 69-nucleotide full-length wild-type guanine sensing aptamer RNA sequence from xpt-pbuX operon in B. subtilis (SEQ ID NO: 1) (nucleic acid, RNA, backbone and methylation of C not given here) CACUCAUAUAAUCGCGUGGAUAUGGCACGCAAGUUUCUACCGGGCACCGUAAAUGUCCGACUAUGGGUG",Force at which P1 melted,[1]; [4],5-10 pN
same,"Force at which P2, P3 unfolded",[1]; [4],12-15 pN
same,Unfolding force of the aptamer,[1]; listed as guanine-aptamer,18.6±1.1 pN
same,Unfolding force of the aptamer,[1]; listed as isolated aptamer,~18.0 pN
same,Observed nucleotides,[1],67.1 ± 2
same,Observed ΔXobs,[1],30.2 ± 1.0 nm
same,Observed nucleotides,[1]; listed as 69 nt-aptamer,67±2
same,Observed ΔXobs,[1]; listed as guanine-aptamer,30.2±1 nm
same,Observed ΔXobs,[1]; listed as isolated aptamer,~30 nm
same,Kd,[2],~5 nM
same,Equilibrium force F^eq,"[3]; transition BA (P1 folding), 250 uM DAP (rates at 8.5 pN)",9.8 ± 0.1 pN
same,Folding rate kf,[3]; [5],0.29 ± 0.02 s⁻¹
same,Transition distance ΔX,[3]; [5],9.7 ± 0.2 nm
same,Unfolding rate ku,[3]; [5],0.023 ± 0.004 s⁻¹
same,ΔG (0),"[3]; transition BA (P1 folding), from data at 8.5 pN",−16.6 ± 0.5 kBT
same,Equilibrium force F^eq,"[3]; transition C′B (L2-L3 folding), 250 uM DAP (rates at 8.5 pN)",8.7 ± 0.2 pN
same,Folding rate kf,[3]; [6],0.96 ± 0.08 s⁻¹
same,Transition distance ΔX,[3]; [6],3.6 ± 0.2 nm
same,Unfolding rate ku,[3]; [6],0.8 ± 0.06 s⁻¹
same,ΔG (0),"[3]; transition C′B (L2-L3 folding), from data at 8.5 pN",−7.6 ± 0.4 kBT
same,Equilibrium force F^eq,"[3]; transition DC (P3 folding), 250 uM DAP (rates at 12.0 pN)",12.3 ± 0.02 pN
same,Folding rate kf,[3]; [7],22.0 ± 0.6 s⁻¹
same,Transition distance ΔX,[3]; [7],7.5 ± 0.3 nm
same,Unfolding rate ku,[3]; [7],14.3 ± 0.4 s⁻¹
same,ΔG (0),"[3]; transition DC (P3 folding), from data at 12.0 pN",−15.5 ± 0.9 kBT
same,Equilibrium force F^eq,"[3]; transition ED (P2 folding), 250 uM DAP (rates at 13.5 pN)",13.6 ± 0.02 pN
same,Folding rate kf,[3]; [8],14.7 ± 0.4 s⁻¹
same,Transition distance ΔX,[3]; [8],7.0 ± 0.2 nm
same,Unfolding rate ku,[3]; [8],13.4 ± 0.4 s⁻¹
same,ΔG (0),"[3]; transition ED (P2 folding), from data at 13.5 pN",−16.3 ± 0.7 kBT
